Test results: the supplement of paper PMC10724198
± gives the standard deviation of the averaged measurements.

Columns and labels:
[1] = system: Saccharomyces cerevisiae; assay: protein stability index of tFT-peptide fusion in deletion strain of DAS1 (PSI (0-1 scale)); higher = more stable (slower turnover)
[2] = system: Saccharomyces cerevisiae; assay: protein stability index of tFT-peptide fusion in wild type (PSI (0-1 scale)); higher = more stable (slower turnover); conditions: genetic background: wild type
[3] = system: Saccharomyces cerevisiae; assay: protein stability index of tFT-peptide fusion (C-terminal peptide) (PSI (0-1 scale)); higher = more stable (slower turnover)
Method: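 MPS profiling in S. cerevisiae of the tFT-X12 degron library: putative degron peptides plus stable controls, 12 aa, fused to the C-terminus of a sfGFP-mCherry timer. Cells are FACS-sorted into 8 mCherry/sfGFP bins and deep-sequenced. PSI runs from 0 (unstable) to 1 (stable). Backgrounds are wild type, das1Δ and doa10Δ at 30 °C, and wild type, das1Δ, cdc34-1 and cdc53-1 at 37 °C; 2-3 technical replicates each.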
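Throughout, for protein stability index of tFT-peptide fusion (C-terminal peptide): PSI is a weighted mean of sequencing reads over stability bins, variants kept only with over 10 reads, mCherry proximal and sfGFP distal, peptide attached via GGGS linker.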
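Throughout, for protein stability index of tFT-peptide fusion in deletion strain of DAS1: PSI is a weighted mean of each variant's read distribution over the sorted stability bins, computed only for variants having over 10 reads in total.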
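Throughout, for protein stability index of tFT-peptide fusion in wild type: PSI derived as read-weighted mean over the 8 sorting bins, only variants exceeding 10 total reads kept, mCherry placed adjacent to the peptide and sfGFP distal.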

Sequence | protein stability index [1] | protein stability index [2] | other results
ARWGVGLWRGAS | 0.685 | 0.372 | protein stability index ([3]; genetic background: cdc34-1, temperature: 37 C): 0.664 ± 0.02; protein stability index ([3]; genetic background: cdc53-1, temperature: 37 C): 0.756 ± 0.0077; protein stability index ([3]; genetic background: das1 deletion, temperature: 30 C): 0.6508 ± 0.0062; protein stability index ([3]; genetic background: das1 deletion, temperature: 37 C): 0.76494 ± 7.7e-05; protein stability index ([3]; genetic background: doa10 deletion, temperature: 30 C): 0.282 ± 0.018; protein stability index ([3]; genetic background: wild type, temperature: 30 C): 0.299 ± 0.029; protein stability index ([3]; genetic background: wild type, temperature: 37 C): 0.618 ± 0.012
PDKRNHLKKLLN | 0.616 | 0.101 | –
PDKRPHLIKLLN | 0.678 | 0.0997 | –
PDKYNHLIKLLN | 0.59 | 0.0777 | –
PDMRNHLIKLLN | 0.757 | 0.0863 | –
PDYRNHLIKLLN | 0.607 | 0.0727 | –
PELAASFWRVVG | 0.694 | 0.2 | –
PKHKKGQKQKIN | 0.747 | 0.0768 | –
PSAAASFWRVVG | 0.678 | 0.174 | –
PSHAASFWRVVG | 0.697 | 0.163 | –
PSLAASFARVVG | 0.684 | 0.622 | –
PSLAASFRRVVG | 0.656 | 0.665 | –
PSLAASFWRPVG | 0.677 | 0.656 | –
PSLAASFWRSVG | 0.699 | 0.168 | –
PSLAASFWRVGG | 0.677 | 0.676 | –
PSLAASFWRVVGH | 0.707 | 0.681 | –
PSLAASFWRVVGL | 0.713 | 0.683 | –
PSLAASFWRVVGP | 0.692 | 0.684 | –
PSLAASFWRVVR | 0.685 | 0.688 | –
PSLAASFWRVWG | 0.696 | 0.38 | –
PSLAASFWYVVG | 0.708 | 0.655 | –
PSLAASIWRVVG | 0.69 | 0.143 | –

Sequence | protein stability index [1] | protein stability index [2] | other results
PSLAASSWRVVG | 0.694 | 0.167 | –
PSLAESFWRVVG | 0.685 | 0.482 | –
PSLALSFWRVVG | 0.669 | 0.183 | –
PSLASSFWRVVG | 0.696 | 0.165 | –
PSLAWSFWRVVG | 0.724 | 0.0943 | –
PSLNASFWRVVG | 0.699 | 0.159 | –
PSPAASFWRVVG | 0.69 | 0.115 | –
PTKRNHLIKLLN | 0.582 | 0.114 | –
PVVYLSCVACIN | 0.0265 | 0.0343 | –
QKHKKGQKQKIN | 0.676 | 0.0918 | –
RDIQPLPVQFLN | 0.596 | 0.0918 | –
REIQPLPVQFLN | 0.61 | 0.121 | –
RLEQPLPVQFLN | 0.574 | 0.0758 | –
RLIAPLPVQFLN | 0.738 | 0.0614 | –
RLIFPLPVQFLN | 0.553 | 0.0304 | –
RLILPLPVQFLN | 0.589 | 0.0596 | –
RLIMPLPVQFLN | 0.572 | 0.0368 | –
RLIQFLPVQFLN | 0.539 | 0.00974 | –
RLIQKLPVQFLN | 0.589 | 0.0183 | –
RLIQPHPVQFLN | 0.776 | 0.0682 | –
RLIQPLPFQFLN | 0.624 | 0.0405 | –
RLIQPLPLQFLN | 0.619 | 0.0437 | –

Sequence | protein stability index [1] | protein stability index [2] | other results
RLIQPLPVLFLN | 0.542 | 0.0545 | –
RLIQPLPVQFDN | 0.624 | 0.668 | –
RLIQPLPVQFLI | 0.537 | 0.0642 | –
RLIQPLPVQFLP | 0.57 | 0.62 | –
RLIQPLPVQFMN | 0.614 | 0.0175 | –
RLIQPLPVQFRN | 0.609 | 0.533 | –
RLIQPLPVQFVN | 0.598 | 0.0426 | –
RLIQPLPVQFWN | 0.618 | 0.132 | –
RLIQPLPVVFLN | 0.565 | 0.047 | –
RLIQPLPVWFLN | 0.609 | 0.0563 | –
RLIQPLSVQFLN | 0.594 | 0.0547 | –
RLIQPLTVQFLN | 0.608 | 0.065 | –
RLIQTLPVQFLN | 0.594 | 0.0873 | –
RLKQPLPVQFLN | 0.559 | 0.181 | –
RNIQPLPVQFLN | 0.61 | 0.0759 | –
RPIQPLPVQFLN | 0.593 | 0.0515 | –
RRWRVGLWRGAS | 0.684 | 0.389 | –
RVIQPLPVQFLN | 0.576 | 0.0531 | –
RWIQPLPVQFLN | 0.686 | 0.0536 | –
SSMRWTFRYWVN | 0.608 | 0.113 | –
TRWRVGLWRGAS | 0.602 | 0.394 | –
TTSCGYKFRTNN | 0.677 | 0.255 | –

Sequence | protein stability index [1] | protein stability index [2] | other results
VDGAVGGWRLVG | 0.685 | 0.155 | –
VRCAVGGWRLVG | 0.716 | 0.126 | –
VRGAVGGARLVG | 0.673 | 0.618 | –
VRGAVGGKRLVG | 0.677 | 0.649 | –
VRGAVGGWALVG | 0.667 | 0.438 | –
VRGAVGGWRLCG | 0.676 | 0.239 | –
VRGAVGGWRLMG | 0.66 | 0.177 | –
VRGAVGGWRLVGE | 0.66 | 0.612 | –
VRGAVGGWRLVN | 0.673 | 0.157 | –
VRGAVGGWRLVQ | 0.684 | 0.24 | –
VRGAVGGWRLWG | 0.717 | 0.534 | –
VRGAVGGWRYVG | 0.686 | 0.157 | –
VRGAVGHWRLVG | 0.678 | 0.157 | –
VRGAVIGWRLVG | 0.68 | 0.146 | –
VRGAWGGWRLVG | 0.692 | 0.147 | –
VRPAVGGWRLVG | 0.68 | 0.106 | –
WSLAASFWRVVG | 0.668 | 0.116 | –
YKHKKGQKQKIN | 0.607 | 0.176 | –
YRWRVGLWRGAS | 0.66 | 0.223 | –
